Results on five molecules are retold here after PMC11019746 (ACS Pharmacology & Translational Science, 2024).

For assay [1], the target named is T1, Y4R (Homo sapiens, UniProt P50391). Nature of the assay: Y4R miniGsi recruitment assay (HEK293T-NlucN-mGsi/Y4R-NlucC cells). Also: relative to 1 µM hPP (100%). Details: expressed in transfected cells; host or cells: HEK293T. The settings on record: read-out: miniGsi recruitment Emax ± SEM. The class given is cell-based. The method, then: Furimazine was used as nanoluciferase substrate. The original stock was diluted 1:1000 in L15-HEPES to obtain the feed solution for the assay. Data analysis was performed based on the areas under the curves (time window: 45 min starting with the agonist addition) using GraphPad Prism 5. […] Efficacies Emax correspond to the upper plateaus of the normalized concentration–response curves.

Assay [2] concerns the target T2, hY1R (Homo sapiens, UniProt P25929).
T2 construct: host or cells: SK-N-MC neuroblastoma cells
T2 sequence (P25929 1-384): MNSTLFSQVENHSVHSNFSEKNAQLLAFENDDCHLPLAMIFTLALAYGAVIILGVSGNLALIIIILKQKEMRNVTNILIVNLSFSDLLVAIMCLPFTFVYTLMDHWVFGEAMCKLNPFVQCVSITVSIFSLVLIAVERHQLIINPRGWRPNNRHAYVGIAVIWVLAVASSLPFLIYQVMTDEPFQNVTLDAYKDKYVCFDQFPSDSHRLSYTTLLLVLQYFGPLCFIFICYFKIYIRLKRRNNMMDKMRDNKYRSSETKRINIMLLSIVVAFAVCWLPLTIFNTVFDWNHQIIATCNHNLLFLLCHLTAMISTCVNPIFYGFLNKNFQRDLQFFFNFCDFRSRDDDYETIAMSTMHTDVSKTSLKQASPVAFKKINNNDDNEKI
Description: Y1R radioligand competition binding, whole SK-N-MC cells, [3H]UR-MK299. As to conditions: SK-N-MC neuroblastoma cells, [3H]UR-MK299 c = […]; read-out: pKi ± SEM hY1R (converted). As to the method:
(§1) All radioligand binding assays were performed at intact Y receptor expressing cells at 23 ± 2 °C.
Competition binding assays at Y1R-expressing SK-N-MC neuroblastoma cells were performed as previously described using [^3H]UR-MK299 as radioligand (concentration: 0.15 nM).[33] […] (logarithmic form in the case of pKi values).

The target of assay [3] is T3, hY4R (Homo sapiens, UniProt P50391). Description: Y4R Ca2+ aequorin assay (CHO-hY4R-Gqi5-mtAEQ cells). On the set-up: expressed in transfected cells; host or cells: CHO (co-expressing Gqi5 and mitochondrially targeted aequorin). The class given is cell-based. As to the method: The assay was performed with live CHO-hY4R-Gqi5-mtAEQ cells as previously described (used buffer: buffer III). Measurements were carried out on a Tecan Infinite Lumi plate reader. Data analysis was performed as reported using GraphPad Prism 5 for the calculation of the area under the curve. […] Efficacies Emax correspond to the upper plateaus of the normalized concentration–response curves.

For assay [4], the target named is T4, hY2R (Homo sapiens, UniProt P49146).
T4 construct: host or cells: CHO
T4 sequence (P49146 1-381): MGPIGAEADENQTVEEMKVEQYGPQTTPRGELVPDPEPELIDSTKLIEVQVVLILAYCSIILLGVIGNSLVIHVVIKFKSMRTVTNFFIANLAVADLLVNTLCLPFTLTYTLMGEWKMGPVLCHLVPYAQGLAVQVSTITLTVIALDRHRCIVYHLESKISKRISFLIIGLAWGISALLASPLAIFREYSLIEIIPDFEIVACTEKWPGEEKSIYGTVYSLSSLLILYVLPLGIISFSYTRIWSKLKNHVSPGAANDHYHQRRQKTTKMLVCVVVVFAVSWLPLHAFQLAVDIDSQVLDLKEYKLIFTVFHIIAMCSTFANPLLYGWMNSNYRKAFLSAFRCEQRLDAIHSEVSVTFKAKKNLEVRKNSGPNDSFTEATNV
Description: Y2R radioligand competition binding, whole CHO-hY2R cells, [3H]propionyl-pNPY. The settings on record: read-out: pKi ± SEM hY2R (converted). As to the method:
as §1

Assay [5] addresses T5, hY5R (Homo sapiens, UniProt Q15761).
T5 construct: expressed in transfected cells; host or cells: HEC-1B (human endometrial cancer)
T5 sequence (Q15761 1-445): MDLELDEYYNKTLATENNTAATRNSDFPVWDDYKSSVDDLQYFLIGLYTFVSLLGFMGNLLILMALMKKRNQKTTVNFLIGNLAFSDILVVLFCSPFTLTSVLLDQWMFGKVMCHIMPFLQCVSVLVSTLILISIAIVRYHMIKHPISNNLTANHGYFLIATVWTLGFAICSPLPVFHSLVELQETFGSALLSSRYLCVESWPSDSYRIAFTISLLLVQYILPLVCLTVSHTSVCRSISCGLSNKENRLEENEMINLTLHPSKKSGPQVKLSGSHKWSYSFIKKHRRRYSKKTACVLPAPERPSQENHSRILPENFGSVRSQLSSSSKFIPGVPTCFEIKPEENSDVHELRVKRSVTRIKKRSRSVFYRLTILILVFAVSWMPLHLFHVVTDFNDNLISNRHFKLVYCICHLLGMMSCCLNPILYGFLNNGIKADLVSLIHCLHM
Description: Y5R radioligand competition binding, whole HEC-1B-hY5R cells, [3H]propionyl-pNPY. The settings on record: [3H]propionyl-pNPY c = 5 nM, read-out: pKi ± SEM hY5R (converted). As to the method:
as §1
(§2) (logarithmic form in the case of pKi values).

In assay [6] the target is T3, hY4R. Nature of the assay: Y4R radioligand competition binding, whole CHO-hY4R-Gqi5-mtAEQ cells, [3H]UR-KK200. On the set-up: expressed in transfected cells; host or cells: CHO (co-expressing Gqi5 and mitochondrially targeted aequorin). The settings on record: [3H]UR-KK200 c = 1 nM, read-out: pKi ± SEM hY4R (converted). The method, then: as §1, §2
Assay [7] deals with Sulfo-Cy5-[K4]hPP (Homo sapiens) (UniProt P01298). As to conditions: cited from earlier work.
Assay [8] addresses 5-TAMRA-[K18,Nle17,30]hPP (2) (Homo sapiens) (UniProt P01298). As to conditions: cited from earlier work.
In assay [9] the target is Y5 receptor (Homo sapiens) (UniProt Q15761). As to conditions: cited from earlier work.
Assay [10] addresses T1, Y4R. Description: radioligand competition binding (137 mM Na+). The settings on record: cited from earlier work.
Assay [11] deals with T1, Y4R. Nature of the assay: radioligand competition binding. As to conditions: cited from earlier work.
For assay [12], the target named is Y2 receptor (Homo sapiens) (UniProt P49146). The settings on record: cited from earlier work.
Assay [13] concerns the target Y1 receptor (Homo sapiens) (UniProt P25929). The settings on record: cited from earlier work.
The target of assay [14] is hY4R-Nluc(intraECL2) (human) (UniProt P50391).
Assay [15] concerns the target T6, human neuropeptide Y Y4 receptor (wild-type, CHO-hY4R-Gqi5-mtAEQ cells) (human, UniProt P50391 1-375).
T6 construct: The cells also express Gqi5 and mitochondrially targeted aequorin; also called wild-type Y4R
Description: radioligand binding; competition with [^3H]UR-KK200 (1.0 nM) at intact CHO-hY4R-Gqi5-mtAEQ cells, 23 ± 2 °C, buffer I (sodium-free). As to conditions: one partner purified.

Assay [16] deals with T6, human neuropeptide Y Y4 receptor …. Nature of the assay: cell-based or functional assay.
The target in assay [17] is T7, human neuropeptide Y Y2 receptor (human, UniProt P49146 1-381).
T7 construct: also called hY2R; source: CHO-hY2R cells (from PerkinElmer), intact cells
T7 sequence (looked up): T4 sequence (P49146 1-381)
Nature of the assay: radioligand binding; competition with [^3H]propionyl-pNPY (0.5 nM) at intact CHO-hY2R cells, 23 ± 2 °C, buffer I (sodium-free). The settings on record: one partner purified.

Assay [18] addresses human neuropeptide Y Y5 receptor (human) (UniProt Q15761). Nature of the assay: radioligand binding; competition with [^3H]propionyl-pNPY (5 nM) at intact HEC-1B-hY5R cells, 23 ± 2 °C, buffer II (150 mM NaCl).
In assay [19] the target is human neuropeptide Y Y1 receptor (human) (UniProt P25929). Description: radioligand binding; competition with [^3H]UR-MK299 ([…]) at intact SK-N-MC cells, 23 ± 2 °C, buffer II (150 mM NaCl).

As to `Cc1cc(/C=C/C=C/c2ccc(N(C)C)cc2)cc(C)[n+]1CCCn1cc(CCCCNC(=O)N=C(N)NCCC[C@@H]2NC(=O)CCC(=O)NCCCCNC(=O)N=C(N)NCCC[C@@H](C(=O)N[C@@H](CC(C)C)C(=O)N[C@@H](CCCNC(=N)N)C(=O)N[C@@H](Cc3ccc(O)cc3)C(N)=O)NC(=O)[C@H](Cc3ccc(O)cc3)NC2=O)nn1` [Compound 19], the Emax in [1] worked out at 43 ± 1%; in assay [3] (read-out: Ca2+-aequorin Emax ± SEM), 64 ± 2%. For the same molecule, the Ki in [2] was greater than 1000 nM; in assay [4], greater than 1000 nM; in assay [5], greater than 1000 nM; in [6], 0.603 nM. Besides, in [3] (CHO-hY4R-Gqi5-mtAEQ cells, agonist mode, read-out: Ca2+-aequorin pEC50 ± SEM (converted)), the EC50 is 56.2 nM.
Regarding Y4 receptor (from UniProt P50391), the Kd in assay [7] is 5.6 nM; in [8], 26 nM.
Take hPP (from UniProt P01298): the Ki is 17 nM in assay [9]; 0.079 nM in assay [10]; 0.1 nM in assay [11]; greater than 3000 nM in assay [12]; 440 nM in assay [13].
In assay [14], “human pancreatic polypeptide (from UniProt P01298 30-65)” had a pKi of 7.7.

B1: cyclic peptide 11 (alkyne-functionalized precursor peptide) (peptide)
peptide: RYRLRY
modifications: N^α-succinyl; N^ω-[hex-5-ynylaminocarbonyl]-Arg at position 1; N^ω-[(aminobutyl)aminocarbonyl]-Arg at position 3; cyclized via the succinyl carboxylic group and the primary amino group of the carbamoylated arginine in position 3; C-terminal amide
notes: printed in three-letter code for the linear precursor 10: N^α-succinyl-N^ω[hex-5-ynylaminocarbonyl]-Arg-Tyr-N^ω-[(aminobutyl)aminocarbonyl]Arg-Leu-Arg-Tyr-amide; 11 is its cyclized form; source: synthetic peptide (SPPS of linear peptide 10, cyclization in solution, preparative HPLC)
Molecule B1 returned a Ki in assay [15] of 0.42 nM. In addition, the “EC50, miniGsi recruitment assay (HEK293T-NlucN-mGsi/Y4R-NlucC cells)” value in [16] was 73 nM. Besides, the values for the pKi in assay [17], in [18] and in [19] were less than 5, less than 5.5 and less than 5, respectively.
